# Measured values reported in paper PMC3228521 (Molecular bioSystems, 2011).
# Residue numbers refer to the chain shown, from its start. Names may count otherwise. Where two headings read alike, the source gives them in different places.
# T1: UBZ-CN (a.a. 515~615) of S. cerevisiae Polη, GST fusion (S. cerevisiae, UniProt Q04049 515-615)
# T1 sequence (looked up): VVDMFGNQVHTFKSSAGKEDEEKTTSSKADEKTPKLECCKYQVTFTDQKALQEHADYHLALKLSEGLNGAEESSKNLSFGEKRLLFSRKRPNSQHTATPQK
# T2: C-term scPolη (a.a. 515~632) HH568,572AA, GST fusion (S. cerevisiae, UniProt Q04049 515-632, HH568,572AA | HH568,572AA)
# T2 sequence (looked up): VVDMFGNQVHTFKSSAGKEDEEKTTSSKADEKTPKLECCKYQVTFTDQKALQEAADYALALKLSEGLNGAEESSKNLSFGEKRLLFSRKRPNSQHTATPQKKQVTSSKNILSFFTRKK
# T3: C-term scPolη (a.a. 515~632) CC552,553AA, GST fusion (S. cerevisiae, UniProt Q04049 515-632, CC552,553AA | CC552,553AA)
# T3 sequence (looked up): T2 sequence (looked up) with C38A, C39A, A54H, A58H
# B1: minimal S. cerevisiae Polη UBZ domain (a.a. 545–580) with N-terminal GST tag, wild type (domain or fragment, UniProt Q04049 545-580, looked up)
# chain: EKTPKLECCKYQVTFTDQKALQEHADYHLALKLSEG
# B2: scPolη UBZ domain (a.a. 545–580) Q566P, GST fusion (domain or fragment, S. cerevisiae, UniProt Q04049 545-580, looked up)
# chain: B1 chain with Q22P
# B3: scPolη UBZ domain (a.a. 545–580) CC552,553AA, GST fusion (domain or fragment, S. cerevisiae, UniProt Q04049 545-580, looked up)
# chain: B1 chain with C8A, C9A
# B4: scPolη UBZ domain (a.a. 545–580) A574F, GST fusion (domain or fragment, S. cerevisiae, UniProt Q04049 545-580, looked up)
# chain: B1 chain with A30F
# B5: scPolη UBZ domain (a.a. 545–580) A574P, GST fusion (domain or fragment, S. cerevisiae, UniProt Q04049 545-580, looked up)
# chain: B1 chain with A30P
# B6: scPolη UBZ domain (a.a. 545–580) A569P, GST fusion (domain or fragment, S. cerevisiae, UniProt Q04049 545-580, looked up)
# chain: B1 chain with A25P
# B7: scPolη UBZ domain (a.a. 545–580) D570A, GST fusion (domain or fragment, S. cerevisiae, UniProt Q04049 545-580, looked up)
# chain: B1 chain with D26A
# B8: scPolη UBZ domain (a.a. 545–580) HH568,572AA, GST fusion (domain or fragment, S. cerevisiae, UniProt Q04049 545-580, looked up)
# chain: B1 chain with H24A, H28A
# B9: UBZ-N (a.a. 515~580) of S. cerevisiae Polη, GST fusion (domain or fragment, UniProt Q04049 515-580, looked up)
# chain: VVDMFGNQVHTFKSSAGKEDEEKTTSSKADEKTPKLECCKYQVTFTDQKALQEHADYHLALKLSEG
# B10: ubiquitin (S. cerevisiae) (natural protein)
# chain: not shown
# B11: UBZ-C (a.a. 545~608) of S. cerevisiae Polη, GST fusion (domain or fragment, UniProt Q04049 545-608, looked up)
# chain: EKTPKLECCKYQVTFTDQKALQEHADYHLALKLSEGLNGAEESSKNLSFGEKRLLFSRKRPNSQ
# Legend:
# Test in all cases: SPR
# [1] = target: B10
# [2] = target: B10; remark: listed apart in the source
# [3] = target: T1, UBZ-CN (a.a. 515~615) of S. cerevisiae …
# [4] = target: T2, C-term scPolη (a.a. 515~632) …
# [5] = target: T3, C-term scPolη (a.a. 515~632) …
Binder,Kd [1] [µM],other results
B1,14.6 ± 2.5,
B2,48.4 ± 7.2,
B3,22.3 ± 4.1,
B4,38.6 ± 8.6,
B5,55.3 ± 5.5,
B6,43.1 ± 10.2,
B7,23.6 ± 2.4,
B8,22.2 ± 4.8,
B9,,Kd [2]: 18.2 ± 2.2 µM
B10,,Kd [3]: 11.1 ± 1.8 µM; Kd [4]: 0.59 ± 0.14 µM; Kd [5]: 0.3 ± 0.1 µM
B11,,Kd [2]: 15.8 ± 3.7 µM
